Experimental data taken from US20240116985A1 (published 2024).
Starred links: 1 amine or outer side, 2 acyl side, 3 side chain; linkers in the order of their positions; H or OH if unused. Positions of bridges follow the written chain, without caps; N, C: chain ends. Non-standard residues stand in square brackets, D forms with d. Primed or numbered codes have the meaning given here. B5(29) = 2-amino-2-(pent-4-en-1-yl)hept-6-enoic acid (2,2-bis(4-pentenyl)glycine), stitching residue bearing both staples, C=CCCCC(CCCC=C)(N[*:1])C(=O)[*:2]; PyrS2″ = (S)-3-amino-1-((pent-4-en-1-yloxy)carbonyl)pyrrolidine-3-carboxylic acid (stapling residue), C=CCCCOC(=O)N1CC[C@@](N[*:1])(C(=O)[*:2])C1; B5(6) = 2-amino-2-(pent-4-en-1-yl)hept-6-enoic acid (bis(4-pentenyl)glycine), stitching residue, C=CCCCC(CCCC=C)(N[*:1])C(=O)[*:2]; B5 = 2-amino-2-(pent-4-en-1-yl)hept-6-enoic acid, C=CCCCC(CCCC=C)(N[*:1])C(=O)[*:2]; Bta = N[C@@H](Cc1csc2ccccc12)C(=O)O; αAllylPro = C=CC[C@@]1(C(=O)O)CCCN1; tBuAla = CC(C)(C)C[C@H](N)C(=O)O; 3Thi = N[C@@H](Cc1ccsc1)C(=O)O; S8 = C=CCCCCCC[C@](C)(N)C(=O)O; hSer = N[C@@H](CCO)C(=O)O

T1: full-length beta-Catenin (Uniprot ID P35222) (Homo sapiens (Human), UniProt P35222 1-781)
T1 construct: The assay protocols call it full-length; also called B-Catenin; bCat
T1 sequence: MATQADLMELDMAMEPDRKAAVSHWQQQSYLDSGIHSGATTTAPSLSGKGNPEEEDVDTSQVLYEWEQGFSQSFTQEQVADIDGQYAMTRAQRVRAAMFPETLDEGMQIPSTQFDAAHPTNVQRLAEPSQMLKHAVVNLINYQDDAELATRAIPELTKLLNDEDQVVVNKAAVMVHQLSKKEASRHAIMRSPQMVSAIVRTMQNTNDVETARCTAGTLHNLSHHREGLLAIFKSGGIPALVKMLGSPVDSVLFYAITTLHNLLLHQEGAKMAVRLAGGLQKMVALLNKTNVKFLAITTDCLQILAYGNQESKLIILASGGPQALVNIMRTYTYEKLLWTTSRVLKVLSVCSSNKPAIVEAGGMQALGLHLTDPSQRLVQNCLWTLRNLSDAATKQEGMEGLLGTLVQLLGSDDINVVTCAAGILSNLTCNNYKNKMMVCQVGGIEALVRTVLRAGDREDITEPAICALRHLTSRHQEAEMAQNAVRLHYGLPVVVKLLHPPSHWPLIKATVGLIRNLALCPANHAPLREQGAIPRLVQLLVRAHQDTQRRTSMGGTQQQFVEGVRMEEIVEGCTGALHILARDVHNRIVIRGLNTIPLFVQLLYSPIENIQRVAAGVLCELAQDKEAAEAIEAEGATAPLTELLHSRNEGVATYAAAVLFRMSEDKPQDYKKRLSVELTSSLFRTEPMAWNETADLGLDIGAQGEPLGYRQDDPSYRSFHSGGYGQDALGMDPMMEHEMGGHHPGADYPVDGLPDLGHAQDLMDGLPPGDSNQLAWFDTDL

T2: B-cat-Halo (beta-catenin HaloTag fusion expressed in HEK293 cells) (Homo sapiens (Human), UniProt P35222 1-781)
T2 sequence: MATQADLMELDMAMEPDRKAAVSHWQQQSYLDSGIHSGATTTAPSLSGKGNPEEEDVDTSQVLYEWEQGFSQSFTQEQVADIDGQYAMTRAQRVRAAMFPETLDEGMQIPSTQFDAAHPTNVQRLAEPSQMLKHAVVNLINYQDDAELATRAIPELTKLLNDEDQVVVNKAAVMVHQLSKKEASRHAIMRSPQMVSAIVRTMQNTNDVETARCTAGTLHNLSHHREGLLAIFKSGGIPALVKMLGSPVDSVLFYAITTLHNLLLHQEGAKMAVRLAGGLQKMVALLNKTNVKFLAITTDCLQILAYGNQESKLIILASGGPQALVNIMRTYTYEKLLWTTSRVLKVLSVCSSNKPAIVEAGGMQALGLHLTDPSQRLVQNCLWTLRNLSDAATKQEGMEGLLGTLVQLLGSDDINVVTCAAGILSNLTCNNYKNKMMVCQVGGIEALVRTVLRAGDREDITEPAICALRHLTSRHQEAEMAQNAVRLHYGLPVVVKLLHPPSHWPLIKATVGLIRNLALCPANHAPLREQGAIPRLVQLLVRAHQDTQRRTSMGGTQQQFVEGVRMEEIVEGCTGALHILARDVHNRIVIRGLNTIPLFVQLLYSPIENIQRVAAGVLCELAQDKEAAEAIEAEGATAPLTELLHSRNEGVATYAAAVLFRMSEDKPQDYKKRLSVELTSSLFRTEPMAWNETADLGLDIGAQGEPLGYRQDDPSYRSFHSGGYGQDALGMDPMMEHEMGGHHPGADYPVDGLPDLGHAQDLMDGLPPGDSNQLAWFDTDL

T3: full-length beta-Catenin (Uniprot ID P35222) (Homo sapiens (Human), UniProt P35222 1-781)
T3 construct: Used full-length in the fluorescence polarization probe solution (10 nM); also called bCat; B-Catenin
T3 sequence: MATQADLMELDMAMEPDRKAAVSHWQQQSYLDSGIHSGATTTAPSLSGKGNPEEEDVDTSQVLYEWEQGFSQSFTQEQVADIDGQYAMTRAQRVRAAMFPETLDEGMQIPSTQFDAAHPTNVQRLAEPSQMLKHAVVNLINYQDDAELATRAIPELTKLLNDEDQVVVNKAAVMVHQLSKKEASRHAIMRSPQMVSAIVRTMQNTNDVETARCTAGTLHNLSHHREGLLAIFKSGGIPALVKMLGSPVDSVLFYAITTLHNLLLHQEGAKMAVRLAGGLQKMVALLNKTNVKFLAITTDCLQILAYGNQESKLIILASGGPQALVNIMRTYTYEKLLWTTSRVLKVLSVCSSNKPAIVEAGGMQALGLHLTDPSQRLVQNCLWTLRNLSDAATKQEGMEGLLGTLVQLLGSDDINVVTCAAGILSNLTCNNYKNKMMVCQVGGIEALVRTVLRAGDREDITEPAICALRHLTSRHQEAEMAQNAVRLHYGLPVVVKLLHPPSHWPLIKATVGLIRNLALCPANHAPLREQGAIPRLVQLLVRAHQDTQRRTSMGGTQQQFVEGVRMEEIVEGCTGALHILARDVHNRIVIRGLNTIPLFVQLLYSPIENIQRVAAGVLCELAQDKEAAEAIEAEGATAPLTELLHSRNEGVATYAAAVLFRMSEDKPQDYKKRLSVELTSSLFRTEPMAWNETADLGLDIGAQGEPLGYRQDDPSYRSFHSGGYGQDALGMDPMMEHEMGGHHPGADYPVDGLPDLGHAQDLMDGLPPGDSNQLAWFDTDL


Legend:
[1] = target: T1, full-length beta-Catenin (Uniprot ID …); assay: AlphaScreen competition; full-length beta-catenin with biotin-labelled TCF4 10-53 peptide as competitor
Method: Equal volume of the titrated peptide was added to the plate and incubated for 15 minutes at 20° C. Then 4 uL of donor and 4 uL acceptor beads at 10 ug/mL were added to the plate, for a 16 uL reaction pool and protected from light for 60 minutes at 20° C. prior to read. Reads were performed on a CLARIOstar plate reader (BMG Labtech) in duplicate, and data were fitted to a 1:1 binding model with hill slope using an in-house script. All provided concentrations are final concentrations.

[2] = target: T1, full-length beta-Catenin (Uniprot ID …); assay: fluorescence polarization competition; full-length beta-catenin with 5FAM-labelled TCF4 10-53 peptide as competitor
Method: (§1) The plate was incubated protected from light for 60 minutes at 20° C. prior to read. Reads were performed on a CLARIOstar plate reader (BMG Labtech) in duplicate, and data were fitted to a 1:1 binding model with hill slope using an in-house script. All provided concentrations are final concentrations.

[3] = target: T2, B-cat-Halo (beta-catenin HaloTag fusion …); assay: cell-based or functional assay
[4] = target: T3, full-length beta-Catenin (Uniprot ID …); assay: fluorescence polarization competition; displacement of 5FAM-TCF4(10-53) from full-length beta-catenin
Method: as §1

Row | EC50 [4] | Binder | other results
1 |  | XDAXDDAAFVXFW (not fully specified; N-terminal Ac; PL3 at 1; B5 at 4; S8 at 11; C-terminal NH2; staples PL3(1)-B5(4) and B5(4)-S8(11) by olefin metathesis, Stapled (stitched) peptide; also called Ac-PL3-Asp-Ala-B5-Asp-Asp-Ala-Ala-Phe-Val-S8-Phe-Trp-NH2) [I-290] | EC50 [1]: 303 nM; EC50 [2]: 3290 nM
2 |  | Ac-[αAllylPro]D[tBuAla][B5]DDAAFN[PyrS2″][3Thi][Bta]T-NH2 (staple 1-4, 4-11) [I-814] | NanoBRET IC50 [3]: 12700 nM
3 |  | Ac-[αAllylPro]D[tBuAla][B5]DDAAFN[PyrS2″][3Thi][Bta][dN]-NH2 (staple 1-4, 4-11) [I-818] | NanoBRET % inh @ 10 uM [3]: 31.4%
4 | 82 nM | XDAXDEAAFQXFXQ (not fully specified; Ac-PL3-Asp-Ala-B5-Asp-Glu-Ala-Ala-Phe-Gln-S8-Phe-BztA-DGIn-NH2 (so in the source); read as D-Gln at position 14); N-terminal acetyl, C-terminal amide; stapled PL3-B5 and B5-S8, Stapled peptide composition) [I-494] | 
5 | 88 nM | XDAXDEAAFQXFXS (not fully specified; Ac-PL3-Asp-Ala-B5-Asp-Glu-Ala-Ala-Phe-Gln-S8-Phe-BztA-DSer-NH2; N-terminal acetyl, C-terminal amide; D-Ser at position 14; stapled PL3-B5 and B5-S8, Stapled peptide composition) [I-493] | 
6 | 5000 nM | Ac-[αAllylPro]DA[B5(6)][hSer]EAAFQ[S8]F[Bta]Q-NH2 (staple 1-4, 4-11; not fully specified; printed as Ac-PL3-Asp-Ala-B5-Hse-Glu-Ala-Ala-Phe-Gln-S8-Phe-BztA-Gln-NH2, Stapled peptide composition) [I-497] | 
7 | 119 nM | Ac-[αAllylPro]DT[B5(29)]DEAAFQ[S8]F[Bta]Q-NH2 (staple 1-4, 4-11, Stapled peptide composition) [I-477] | 
8 | 5000 nM | Ac-[αAllylPro]DA[B5(6)][hSer]EAAFQ[S8]F[Bta]Q-NH2 (staple 1-4, 4-11; not fully specified; printed as Ac-PL3-Asp-Ala-B5-Hse-Glu-Ala-Ala-Phe-Gln-S8-Phe-BztA-Gln-NH2, Stapled peptide composition) [I-498] | 
9 | 53 nM | XDAXDEAAFQXFXS (not fully specified; Ac-PL3-Asp-Ala-B5-Asp-Glu-Ala-Ala-Phe-Gln-S8-Phe-BztA-Hse-NH2; N-terminal acetyl, C-terminal amide; stapled PL3-B5 and B5-S8, Stapled peptide composition) [I-492] | 
10 | 5000 nM | Ac-[αAllylPro]DA[B5(6)][hSer]EAAFQ[S8]F[Bta]Q-NH2 (staple 1-4, 4-11; not fully specified; printed as Ac-PL3-Asp-Ala-B5-Hse-Glu-Ala-Ala-Phe-Gln-S8-Phe-BztA-Gln-NH2, Stapled peptide composition) [I-496] | 
11 | 153 nM | XDAXDEAAFQXFXS (not fully specified; Ac-PL3-Asp-Ala-B5-Asp-Glu-Ala-Ala-Phe-Gln-S8-Phe-BztA-Hse-NH2; N-terminal acetyl, C-terminal amide; stapled PL3-B5 and B5-S8, Stapled peptide composition) [I-491] | 
12 | 62 nM | Ac-[αAllylPro]DI[B5(6)]DEAAFN[S8]F[Bta]H-NH2 (staple 1-4, 4-11, Stapled peptide composition) [I-472] | 
13 | 48 nM | XDIXDEAAFNXFXQ (not fully specified; Ac-PL3-Asp-aIle-B5-Asp-Glu-Ala-Ala-Phe-Asn-S8-Phe-BztA-Gln-NH2; N-terminal acetyl, C-terminal amide; stapled PL3-B5 and B5-S8, Stapled peptide composition) [I-476] | 
14 | 181 nM | XDIXDEAAFQXFXN (not fully specified; Ac-PL3-Asp-Ile-B5-Asp-Glu-Ala-Ala-Phe-Gln-S8-Phe-BztA-Asn-NH2; N-terminal acetyl, C-terminal amide; stapled PL3-B5 and B5-S8, Stapled peptide composition) [I-495] | 
15 | 27 nM | XDAXDEAAFNXFXH (not fully specified; Ac-PL3-Asp-Ala-B5-Asp-Glu-Ala-Ala-Phe-Asn-S8-Phe-BztA-1MeH-NH2; N-terminal acetyl, C-terminal amide; stapled PL3-B5 and B5-S8, Stapled peptide composition) [I-479] | 
16 | 52 nM | Ac-[αAllylPro]DI[B5(6)]DEAAFQ[S8]F[Bta]H-NH2 (staple 1-4, 4-11, Stapled peptide composition) [I-471] | 
17 | 71 nM | XDAXDEAAFNXFXH (not fully specified; Ac-PL3-Asp-Ala-B5-Asp-Glu-Ala-Ala-Phe-Asn-S8-Phe-BztA-1MeH-NH2; N-terminal acetyl, C-terminal amide; stapled PL3-B5 and B5-S8, Stapled peptide composition) [I-478] | 
